Results published in article PMC8115922 (Science Advances, 2021).

T1: SAMD1-WH(27-105) (Homo sapiens, UniProt Q6SPF0 27-105)
T1 sequence: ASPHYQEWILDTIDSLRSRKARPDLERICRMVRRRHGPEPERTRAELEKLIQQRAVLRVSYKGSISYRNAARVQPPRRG


Columns and labels:
SEC + native MS = target: the molecule itself; test: SEC + native MS
SAMD1-WH(27-105) = target: T1, SAMD1-WH(27-105); test: X-ray crystallography

Binder	stoichiometry N (SEC + native MS)	binding result (SAMD1-WH(27-105))
WT SAMD1-SAM (construct of the solution experiments not stated) (domain or fragment, human, UniProt Q6SPF0 462-530, looked up) WTVMDVVEYFTEAGFPEQATAFQEQEIDGKSLLLMQRTDVLTGLSIRLGPALKIYEHHIKVLQQGHFED	5	–
13-bp CpG DNA (dsDNA) DNA 1: ACCTGCGCACCAT DNA 2: ATGGTGCGCAGGT	–	binds
